Series [1] deals with Saccharomyces cerevisiae. The experiment in a line: protein stability index of tFT-peptide fusion (C-terminal peptide) (PSI (0-1 scale)); higher = more stable (slower turnover). The settings on record: genetic background: wild type; temperature: 30 C.
Series [2] deals with Saccharomyces cerevisiae. Described as above. As to the method: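 MPS profiling in S. cerevisiae of the tFT-X12 degron library: putative degron peptides plus stable controls, 12 aa, fused to the C-terminus of a sfGFP-mCherry timer. Cells are FACS-sorted into 8 mCherry/sfGFP bins and deep-sequenced. PSI runs from 0 (unstable) to 1 (stable). Backgrounds are wild type, das1Δ and doa10Δ at 30 °C, and wild type, das1Δ, cdc34-1 and cdc53-1 at 37 °C; 2-3 technical replicates each.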

Setting [3] is: genetic background: cdc34-1, temperature: 37 C.
The mark [4] stands for this setting: genetic background: cdc53-1, temperature: 37 C.
Where [5] appears, read: genetic background: das1 deletion, temperature: 30 C.
The mark [6] stands for this setting: genetic background: das1 deletion, temperature: 37 C.
Setting [7] is: genetic background: doa10 deletion, temperature: 30 C.
[8] abbreviates: genetic background: wild type, temperature: 30 C.
The mark [9] stands for this setting: genetic background: wild type, temperature: 37 C.

± gives the standard deviation of the averaged measurements.
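Also: PSI is a weighted mean of sequencing reads over stability bins, variants kept only with over 10 reads, mCherry proximal and sfGFP distal, peptide attached via GGGS linker.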

Turning to VRMMYSVQVWCG, the protein stability index came out at 0.0363 ± 0.036 in series [1]; 0.0466 ± 0.011 in series [2] (setting [3]); 0.138 ± 0.03 in series [2] (setting [4]); 0.0633 ± 0.029 in series [2] (setting [5]); 0.165 ± 0.012 in series [2] (setting [6]); 0.02927 ± 0.00015 in series [2] (setting [7]). Also, the protein stability index worked out at 0.0222 ± 0.0046 in series [2] (setting [8]) and 0.0439 ± 0.0023 in series [2] (setting [9]).
Consider VRVWLLACASKG, for which the protein stability index came to 0.281 ± 0.014 in series [1]; 0.3332 ± 0.00082 in series [2] (setting [3]); 0.423 ± 0.026 in series [2] (setting [4]); 0.236 ± 0.0066 in series [2] (setting [5]); 0.378 ± 0.019 in series [2] (setting [6]); 0.228 ± 0.037 in series [2] (setting [7]). In addition, the protein stability index turned out to be 0.24 ± 0.015 in series [2] (setting [8]) and 0.3609 ± 0.0016 in series [2] (setting [9]).
For the sequence VSDLYLSLVRVV, the protein stability index in series [1] was determined as 0.45 ± 0.078; in series [2] (setting [3]) it was 0.59 ± 0.032; in series [2] (setting [4]), 0.593 ± 0.011; in series [2] (setting [5]) it was 0.46 ± 0.034; in series [2] (setting [6]), 0.604 ± 0.009; in series [2] (setting [7]), 0.256 ± 0.0031. Besides, the protein stability index in series [2] (setting [8]) was 0.31 ± 0.029; in series [2] (setting [9]), 0.492 ± 0.017.
On to VSGVLRSMVRLQ, for which the protein stability index in series [1] is 0.453 ± 0.011; in series [2] (setting [3]), 0.641 ± 0.044; in series [2] (setting [4]) it was 0.7477 ± 0.0057; in series [2] (setting [5]) it was 0.66 ± 0.034; in series [2] (setting [6]), 0.736 ± 0.032; in series [2] (setting [7]), 0.266 ± 0.017. Moreover, the protein stability index in series [2] (setting [8]) stood at 0.324 ± 0.031; in series [2] (setting [9]) it was 0.58 ± 0.03.
As for VSRAVCLWRRLL, the protein stability index in series [1] is 0.0882 ± 0.088; in series [2] (setting [3]) it was 0.479 ± 0.006; in series [2] (setting [4]), 0.68 ± 0.061; in series [2] (setting [5]), 0.618 ± 0.0096; in series [2] (setting [6]) it was 0.7305 ± 0.0018; in series [2] (setting [7]) it was 0.0796 ± 0.0058. Besides, the figures for the protein stability index in series [2] (setting [8]) and in series [2] (setting [9]) were 0.104 ± 0.036 and 0.124 ± 0.026, respectively.
Take VSSFLLPFCLLF: the protein stability index in series [1] is 0.51 ± 0.1; in series [2] (setting [3]), 0.65 ± 0.025; in series [2] (setting [4]), 0.689 ± 0.029; in series [2] (setting [5]), 0.645 ± 0.0076; in series [2] (setting [6]) it was 0.714 ± 0.025; in series [2] (setting [7]), 0.654 ± 0.021. Besides, the protein stability index was 0.641 ± 0.016 in series [2] (setting [8]) and 0.6753 ± 0.0013 in series [2] (setting [9]).
For VSWSVSALIYLK, the protein stability index in series [1] turned out to be 0.35 ± 0.0075; in series [2] (setting [3]), 0.169 ± 0.017; in series [2] (setting [4]), 0.1 ± 0.026; in series [2] (setting [5]), 0.233 ± 0.039; in series [2] (setting [6]) it was 0.319 ± 0.014; in series [2] (setting [7]), 0.572 ± 0.01. Also, the protein stability index was 0.277 ± 0.034 in series [2] (setting [8]) and 0.295 ± 0.015 in series [2] (setting [9]).
Turning to VTLLCRFFMLVF, the protein stability index in series [1] came to 0.369 ± 0.021; in series [2] (setting [3]), 0.454 ± 0.01; in series [2] (setting [4]) it was 0.5149 ± 0.00071; in series [2] (setting [5]), 0.402 ± 0.025; in series [2] (setting [6]), 0.543 ± 0.01; in series [2] (setting [7]), 0.273 ± 0.014. Also, the protein stability index in series [2] (setting [8]) was found to be 0.289 ± 0.014; in series [2] (setting [9]), 0.428 ± 0.017.
As to VVGFVFSCWWSW, the protein stability index came out at 0.5003 ± 0.0031 in series [1]; 0.433 ± 0.031 in series [2] (setting [3]); 0.4646 ± 0.00097 in series [2] (setting [4]); 0.367 ± 0.039 in series [2] (setting [5]); 0.506 ± 0.013 in series [2] (setting [6]); 0.365 ± 0.015 in series [2] (setting [7]). Moreover, the results for the protein stability index in series [2] (setting [8]) and in series [2] (setting [9]) were 0.372 ± 0.045 and 0.46 ± 0.014, respectively.

Source of the values: the supplement of paper PMC10724198.
